Reference: the nanobody polyreactivity screen of Harvey et al. (2022)

Assay: yeast display, Sf9 membrane polyspecificity reagent, FACS + sequencing; frameworks hold sequencing errors
Method in brief: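 In a synthetic yeast display library (Saccharomyces cerevisiae BJ5465), nanobody expression was induced with galactose for 36–48 hours. FACS gates were set low and high (top ~1%) using anti-HA fluorescence for expression and streptavidin fluorescence for binding of the Sf9 membrane reagent. Each polyreactivity label is drawn from the gate of origin.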

Sequence | polyreactivity (PSR sort gate)
QVQLVESGGGLVQAGGSLRLSCAASGIIFDGYVMGWYRQAPGNERELVAAISRSGGRTFYADSVKGRFTISRDNAKNTVYLQMNSLKPEATAVYYCAARRVRTRGYNYWGQGTQVTVSS | high polyreactivity
QVQLQESGGGLVQAGGSLRLSCASSGSIFKVVDKGLYRQAPAKEREFVATIGEGGNTYYADSVKGRFTISRDNAKNTVYLQMNSLKPEDTAVYFYAVVLGTSYRYTYWGQGTQVTVSS | low polyreactivity
QVQLVESGGGLVQAGGRLRLSCAASGNTLRGYAMGWYRPAPGKERELVSAISYSSVNTYYADSVKGRFTISRDNAKNTVYLQMNSLKPEDTAVYYCAADYYYYRRTQYDLRGYPYYYWGQGTQVTVSS | low polyreactivity
QVQLVESGGGLVQAGGSLRLSCAASGNTSVPYAMGWYRQAPGKERELVARITWSTGRTYYADSVKGRFTISRDNAKNTVYLQMNSLKPEDTAVYYCATEALLPCSGGDYWGQGTQVTVSS | low polyreactivity
QVQLVESGGGLVQAGGSLRLSCAASGRLFSYYAMGWYRPAPGKERELVAGISYRGGSTYYADSVKGRFTISRDNAKNTVYLQMNSLKPEDTAVYYCAARPYSYGQRSLRGYWGQGTQVTVSS | high polyreactivity
QVQLVETGGGLVQAGGSLRLSCAASGPFYPYYAMGSYRQAPGKERELVATISTAGSTNYADSVKGRFTISRDNATNTVYLQMNSLIPEDTAVYYCATRNTWYHRGYDYWGQGTQVPVSS | low polyreactivity
QFQLVESGGGLVQAGGSLRLSCAASGSIFANALGWYRQAPRKERELVAAISFSGGRTFYADSVKGRFTISRDNAKNTVYLQMNSLKPDDTTVYYCNKDYWGYFSYWKSYLYDYWGQGTQVTVSS | high polyreactivity
QVQLVESGGGLVQAGGSLRLSCAASGRILELNAMGWYRQAPGKERELVAGISNSGDTTYYADSVKGRFTISRDNAKNTVYLQMNSLKPEDTAVYYCNADGVVTWYDYWGQGTQVTVSS | low polyreactivity
QVQLVESGGGLVQAGGSLRLSCAASGYIFKRYAMGWYRQAPGKERELVAAISGNGGSTYYADSVKGRFTISRDNAKNTVYLQMNSLKPEDTAVYYCNKSGYYSPTSKGEYWGQGTQVTVSS | low polyreactivity
QVHLVESGGALVQAGGRLRLSCAASGSIFGRNAMGWYRQAPGKERELVAVISKRSGNTYYADSVKGRFTISRDNAKNTVYLQMNSLKPEHTAVYYCNAVDQKLLRYDYWGQGTEVTVSS | high polyreactivity
QVHLVESGGGLVQAGGSLRLSCAASGSTFPYYAMGWYRQAPGKEREWVAAITSSASTYFADSVKGRFTISRDNAKNTVYLQMNSLKPEDTAVYYCAVRSPYRLSSWRVGYWGQGTQVTVSS | high polyreactivity
QVQLVESGGGLVQAGGSLRLSCAASGRIFKLYAMGWYRQAPGKERELVAAISTSAGSTNYADSVKGRFTISRDNEKNTVYLQMNSLKPEDTAVYYCAVAGVSTYYTYYYWGQGTQVTVSS | low polyreactivity
QVQLVESGGGLVQAGGSLRLSCAASGFIFYLNAMGWYRQAPGKERELVAAISRGGTTYYADSVKGRFTISRDNAKNTVYLQMNSLIPEDTAVYYCAAKDKRWYSRYYWTGYDYWGQGTQVTVSS | high polyreactivity
QVQLVESGGGLVQAGGSLRLSCAASGYTLGYYAMGWYRQAPGKERELVASITERGGSTYYADSVKGRFTISRDNAKNTVYLQMNSLKPEDTAVYYCAADWDPSWWLFPTSSYDYWGQGTQVTVSS | low polyreactivity
QVQLVESGGGLVQAGGSLRLSCAASGIIFDYYDMGWYRQAPGKERELVAAISDDGGSTYYADSVKGRFTISRDNAKNTVYLQMNSLKPEDTAVYYCAADSYYAYPYGYGYWGQGTQVTVSS | high polyreactivity
QVQLVESGGGIVQAGGSLRLSCAASGRTFQLYAMGWYRQAPGKERELVAAITRGGSTKYADSVKGRFTISRDNAKNTVYLQMNSLKPEDTAVDYCAAKFSSYWSRFGYWGQGTQVTVSS | high polyreactivity
QVQLVESGGGLVQAGGSLRLSCAASGSIFLSNMGWYRQAPGKERELVAAISRNGGSTYYADSVKGRFTISRDNAKNTVYLQMNSLKPEDTAVYYCAVQRYWGQGTQVTVSS | high polyreactivity
PVQLVESGGGLVQAGGSLRLSCAASGNIFGVYPMGWYRQAPGKERELVAVITSSGSTYADSVKGRFTISRDNAKNTVFLQMNSLKPEDTAVYYCNTDGYYHPHGFDYYRYYYWGQGTQVTVSS | high polyreactivity
QVQLVESGGGLVQAGGSLRLTCAASGRIFGVYVMGWYRQAPGKERELVAAISWGGGTYYADSVKGRFTISRDNAKNNVYLQMNSLKPEDTSVYYCNAESYYTMYYWGQGTQVNVSS | low polyreactivity
QVQLVESGGGIVQAGRSLRLRCAASGFIFRYYTMGWYRQAPGKEREFVAAITSRGGSTYYSDSVKGRFTISRDNAKNTVYLQMNSLKPEDTAVYDCATTRWGYEYWGQGSQVTVSS | high polyreactivity
QVQLVESGGGLVQAGGSLRLSCDASGSIFVKNAMGWYRQAPGKERELVAVITIRTATTYYADSVKGRFTISRDNAKNTVYLQMNSLKPEDTAVYYCASAKRQRGYLQREGNYWGQGTQVTVSS | low polyreactivity
QVQLVESGGGLVQAGGSLRLSCAASGSIFYWYAMGWYSQAPGKERELVAAIDISDDTYYADSVKGRFTISRDNAKNTVYLQMNSLKPEDTAGYYCAARTTRWFYEYDWGQGSQVTVSS | high polyreactivity

Sequence | polyreactivity (PSR sort gate)
QVQLVESGGGLVQAGGSLRLSCASSGRTFSPYAMGWYRQAPGKERELVAAISSGGGNTYYADSVKGRITISRDNAKNTVYLQMNSLKPVDTAVYYCNAAQRRGGLGYWGLGTQVTVSS | high polyreactivity
QVQLVESGGGLVQARGSLRLSCAASGSTFRINAMGWYRQAPGKERELVAAITSGGSTKYADSVKGRFTISRDNAKNTVYLQMYILKPADTAVYYCNKQGYPFRYFAWYPGYNYWGQGTQVTVSS | low polyreactivity
QVHLVESGGGLVQAGGSLRLSCSASGSIFGKYAMGWYRQAPGKERELVAAISWSGTSTYYADSVKGRFTISRDNAKNTVYLQMNSLKPEDTAVYYCAAESRVYGYNYWGQGTQVTVSS | high polyreactivity
QVQLVESGGGLVHAGGSLRLSCAASGRTFVSYAMGWYRQAPGKERELVAAITNAGSTYYADSVKGRFTISRDNAKNTVYLQMNSLKPEDTAVYYCAATYWDYWGYGYDYWGQGTQVTVSS | high polyreactivity
QVQLVESGGGLVQAGGSLRLSCDASGSTFWYYAMGWYRQAPGKERELVASITSSGSTNYADSVKGRFTISRDNAKNTVYLQMNSLKPEDTAVYYCNRVSKYERLSRYGYYGYYYWGQGTQVTVSS | high polyreactivity
QVQLVESGGGLVQAGGSLRLSCAASGSTFGDYAMGWYRQAPGKERELVAAISVRGGSTYYADSVKGRFTISRDYAQNTVYLQMNSLKPEDTAVYYCNKDLYRYPGYDSWGQGTQVTVSS | high polyreactivity
QVQLVESGGGLVQAGGSRRLSCAASGSTFYPYSMGWYRQAPGKESELVAAITWSGGRTYYADSVKGRFTISRDNANNTVYLQMNSLKPEDTAVYYCAADRPDGWVDYWGQGTQVTVSS | low polyreactivity
QLQLVESGGGLVQAGGSLRLSCAASGLTFSYYAMGWYRQAPGKETELVSAISRGGTTNYADSVKGRFTISRDNAKNTVYLQMNSLKPEDTAVYYCAASYFRRGFYSIYEYDYWGQGTQVTVSS | low polyreactivity
QDQLVESGGGLVQAGGSLRLSCAASGRTFWRNAMGWSRQAPGKEREMVAAINSGGRTYYADAVKGRFTISRDNAKNTVYLQMNSLKPEDTAVYYCAVYVHRFLDGRVRSYRGDYWGQGTQVTVSS | high polyreactivity
QVQLVESGGGLVQAGGSLRLSSAASGFTVKYNTMGSSRQAPGKEREMVAAISWDGTSTYYADSVKGRFTISRDYAKNTVYLQMNSLKPEDTAVYYCATDAVGAWWSYLSGYGYWGQGTQVTVSS | high polyreactivity
QVQLVESGVGLVQAGGSLRLSCAASGSTFRGYAMGWYRQAPGKERELVAAISSSGGRTYYAYSVKGRFTISRDNAKNTVYLQMNSLKPEDTAVYYCNAASKNSVRYAYQNYDYWGQGTQVTVSS | high polyreactivity
QVQLVESGGGLVQAGGSLRLSCAASGRTLVRNAMGWYTQAPGKEREFVAGITESGDRTSYADSVKGRFTISRDNAKNTVYLQMNSLKPEDTAVYFCAASRPWDFYSFGFDYWGQGTQVTVSS | high polyreactivity
QVQLVESGGGLVQAGGILRLSCAASGRTFVRNTMGWYRQAPGKERELVAVISRSGGSTYYADSVKGRFTISRDNAKNTVYLQMNRLKPEDTAVYYCNADTYSAGDYWGQGSQVTVSS | high polyreactivity
QVQLVESGGGLVQAGGSLRLSCAASGSIFPYNVMGWYRQTPGKERELVADIRSDGSTTYADSVKGRFTISRDNAKNTVYLQMNSLKPEDTAVYDCAAVWTYLYSYSLWLEYDYWGQGTQVTVSS | low polyreactivity
QVQLVESGGGLVQAGGSLRLSCAASGFTIWWYAMGWSRRAPGKERELVATITSGGRTNYAYSVKGRFTISRDNAKNTVYLQMTSLKPEDTAVYYCATRQLSKVKDMDYWGQGTQVTVSS | high polyreactivity
QVQLVESGGGLVQAGGSLRLSCAASGGIFVGYAMGWYRQAPGKERELVAAISSGGNTYYADSVKGRFTISRDNAKNTVYLQMNSLKPEDTAVYYCAAVRQYQGYRYDYWGQGTQVTVSS | high polyreactivity
QVQLVESGGGLVQAGGSLRLSCAASGLIFSFYALGWYRQAPGKERELVAAINRSGGSTYYADSVKGRFTISRDNSKNTVYLQMNSLKPEDTAVYYCAARNAFGTYYYWGQGTQVTVSS | high polyreactivity
QVQLVESGGGLVQAGGSLRLICAASGRILRYYAMGWYRQAPGKERELVASISRGGSTYYADSVKGRFTISRDNAKNTFYLQMNSLKPEDTAVYYCAKSVTGWRGLWYTPRNYYWGQGTQVTVSS | high polyreactivity
QVQLVESGGGLVQAGGSLRLSCAASGRIFERYAMGRYRQAPGKERELVAAISVSGSGTYYADSVKGRFTISRDNAKNTVYLQINSLKPEDTAVYYCAADASLLGLYYYLFYLEVNYWGQGTQVTVSS | low polyreactivity
QVQLVESGGGLVQAGGSLRLSCAASGRIFMNYDMGWYRQPPGKERELVADISISGSTDYADSVKGRFTISRDNAKNTVYLQMNSLKPEDTAVYYCATSFYVSDYYVPYEMGYWGQGTQVTVSS | low polyreactivity
QVQLVESGGGLVQAGGSLRLSCAASGRTFGRYAMGWYRQAPGKERELVAAISYSTDSTYYADSVKGRFTISRDNAKNTVYLQMNSLKPEDTAVYYCAADRLRTSGYKTIYDYWGQGTQVTVSS | low polyreactivity
